The record followed here is patent EP0787148B1.

This assay deals with REK7 (endogenous, on rat E16 cortical neurons) (rat). Briefly: cell-based or functional assay.

On to “soluble AL-1 (purified from BT20 conditioned medium) (ligand)”, for which the tyrosine autophosphorylation of REK7 (immunoprecipitation with anti-REK7, anti-phosphotyrosine blot) was found to be 2 fold.
